# Results from publication PMC11282748.
# Target: foldase protein PrsA of Staphylococcus aureus MW2 (recombinant, without signal peptide) (Staphylococcus aureus MW2)
# Experiment: SEC-MALS; Superdex 200 Increase 10/300; ~1 mg of protein loaded; 50 mM Tris-HCl, 150 mM NaCl, 2.5% (v/v) glycerol, pH 7.8; flow 0.4 ml/min
substance,measurement,value
"foldase protein PrsA of Staphylococcus aureus MW2 (recombinant, without signal peptide) (natural protein)",stoichiometry N,2
